Consider one substance from patent US20050008573A1, “Peptides conjugates, their derivatives with metal complexes and use thereof for magnetic resonance imaging (mri)” (priority 2001, published 2005).

For the series the following is noted: gadolinium complex.

The substance “gadolinium complex of (DTPAGLU)4(Lys)2Lys-Gly-Vapreotide [Example 3]” gave a relaxivity of 15 mM⁻¹ s⁻¹.
